A short description of the data set: label from the status in PepcDB records.
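Also: failed if final PepcDB status was selected cloned or expressed and not failed if soluble or beyond.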

In the case of “MTNNLKQRRIILDLAVTLDGFIEGKNGEVDWCIMDPDMGFTDFLNQIDTILYGRKSFDLWGQYIPKNEDPDTEKELWKLVHSKKKYVFSRTQNEIDNQAIFINDNILEEVNKLKKNPGKDIWLYGGASLITTFINLGLVDEFRLSIHPVVLGEGKPLFIDVKQRINLKMVNTRTFSSGVVQIVYHWNG”, the protein production entry is given as “not failed”.
Regarding “MTNNSTKVCVLLATYNGTKWCLDQVKSILNQEDVNLEVFVSDDLSSDSTTDLLALLNDSRIHILASSYKFGSACQNFFRLVRDVDFSEYDYIAFADQDDLWNPNKLSYSIEQLNAHCADAFSSNVTAFWPDGRARLIVKDQPQREWDFLFESAGPGCTFVLTKKLACNLANFLHNNYEKTKGVALHDWFTYAFARSNSYSWWIDSQPTMMYRQHESNEFGVNSGVTAALSRFRKTSNGWYRNQVILIGDLVGAEDSWPIKRMRRFSLLDRMLLLFNVFAFRRSFRDRIALFFLLLLPQKKLEHHHHHH”, the protein production result is “not failed”.
“MTNSEVSTDLPDKPTSDNEQPDKATSDKEQLGKPPSDRDLRNPTSRLRARLQLIGGALASIAAIGAIAGGLVGYWTVWKTLRTDVFPDKQQTQREATARPDVAPRLSLVVLPFANLNNDPEQDYFADSITTDLTTDLAQMPGAFVIGRGTAFTFKNKQIDFKTLGKELGIRWAVQGAVRRNGDQIRVNVSLTDAASGRDIWSDRFDGDRTNLAALQDQITGRLARSLNIELMQAESRRSEKDQSRNPDAMDFTMRGWAKFYEPRSKTEIAQAKDLFDRALHLDPDNVDAMIAKAWCLAIAAGFRWSTSMAEDKEIATDLIDRALAKSSSNALAYVVKGDTLRVFGRPEEALPEYDAALEINPNFPIAYAQKGLALILSGRAREAFSPLQLALRLSPKDPIAVSWYYNLCHAHLHLQEYEEATKDCRRVININNAFWYAYVDLVSAYGASGQLEPARQSLTELNKIRPDFTIQWFREFGYGYSSNPQFRREFDEILDGLRKGGVREQ”: the protein production entry is recorded as “failed”.
“MTNTRNENLGYVYGLIAVTAFALTLPAMRAALSALDPVFVALGRGAGAAVLAAVFLWFTRQRLPTREEAKGLIIVAAGAVIGFPLLAAWAMLYVDASHGGVVLGILPLATAVAAALFSNERPSMKFWLFALIGAGLVVGYSLSRAGGTLHPADLALFGSIVCAGVSYAEGARLSKSLGGPQVISWALVFSFPILIIPAIHYAPVSLNLPLESWLGFIYLTVISQYLGFFPWYHGLALGGIAKVGQTQLLQPFLTIIASVLLLGEHADLMTWLVATLVVAVVAVGKHAQVKHNDPESATIADTSPHS”: the protein production entry was “failed”.
“MTNVGRPIETHAITVGQGSDARSIAALVRAPAQDERPTCIWLGGYRSDMTGTKALEMDDLAASLGVGAIRFDYSGHGASGGAFRDGTISRWLEEALAVLDHFKPEKAILVGSSMGGWIALRLIQELKARHDNPTQVSGMVLIAPAPDFTSDLIEPLLGDRERAELAENGYFEEVSEYSPEPNIFTRALMEDGRANRVMAGMIDTGCPVHILQGMADPDVPYQHALKLVEHLPADDVVLTLVRDGDHRLSRPQDIDRMRNAIRAMIEPRP”: the protein production result is “not failed”.
As for “MTPAARLSAAIGILDRILGGTPAEQALTNWGRASRFAGSGDRAAVRDLVFDALRCRRSFARAGGAETGRGLVLGGLRMAGQEVGDLFTGEGHAPAPPAGSELKPQAPAELEALDCPDWLAPALRDSLGADFAPVMEALRHRAPVFLRVNLARTDRAAAAAELAAEGIVTQPHPLAETALEVTENPRRLQASAAYREGRVELQDAASQAIVAALPLAPGDRVLDYCAGGGGKSLAMAARAPIDLSAHDADPRRMRDLPERAARAGVKVRRLAPGDPARRGPFDLVLADVPCSGSGSWRRAPEGKWSLTPERLAELRAIQSTILDEVAPLVRPGGHLAYATCSLLASENAGQTEAFLERTSGWTRVHQLRLTPLDGGDGFFLDLLQRNG”, the entry is “failed”; as for “MTPATTTLVFTYGTLKRGFSNHVLMQDLIRSGDASFKGVYQTLDKYPLVCGPYRVPFLLNKPGSGYHVNGELYAVSPRGLSRLDELEGISRGHYIRQPIRLAAAEEEEEEEGDLETEAPSSCVVEAYYAHKSYEEELWRRNRGRSFGAYTENEARGYVKRNDRPQHLSFLDHIRIFVSSPCD”, “failed”.
Regarding “MTPDIRLRVDGRAIVLLTAGCAPGLCPAFAFWACKASAPGRSIAVTPMRSEQQQTDQHADTLHPYACECHAAHLPSSRKKARMRASLFKFGLNLWRPFLFAGIHVTVLSEDYRFARVELRHRPWNRNYVGTHFGGSLFAMTDPFWMLLTIHNLGRDYYVWDKAGNIEFVKPGRGTLTADFVIDDSLLAQLRQATASGEKHLRWFENEVHHRDGEVVARVRKQLYVKRKPAR”, the protein production result was “failed”.
As for “MTPFPAYVPPDFTRPDLAAAPPVRVAEAPGSGVLPAGFHATSNYPEYVHLGGGRWLLASGSRMDAVLVLDGDMLRVVEPRLVRRGDRVVVGRTENGEEGIYVHTTGFDAPAGAGGDKFTFRSRGTRESPFSRSYEELYDILRHDRDHGHIVWVLGPAVAFDRDSRAAMAGLIGGGYCHALLAGNALATHDLEAALFHTGLGQDIYTQALVAGGHYHHLDVINEVLRHGSLERAIAELGIRDGIIRACLEHRVPVVLAGSIRDDGPLPDVITDSRQAQDAMRAHARRATTVIALATQLHAIAVGNMTPSYRVLDDGTVRPVYFYIVDMSEFGADKLANRGSGQARAILTNVQDFMVNLWNNLKG”, the entry is “failed”.
As for “MTPFTLCAATSSGNPHNNHYPNHHHITDQTSLEQVAWLDHVAATYTGDRRSSASFISSDCVVMDIDNDHTDNPDEWITPDDLAELMAGVEFMTATSRNHQKPKRTLSARPRFHVYFPISPVTDADTYAGLKRRLAGRFGFFDPQALDAGRFIYGTTNPETTIHNGTKLLDAWLDEADEIDVFAAFDASTQVIGEGSRNATLSRFAGRVLIRYGQTAQARDLFDRKASLCEPPLSDHELESIWQSACRFAAKVEAQPGYLSPEAYAELTSLRPEDFTDVGQASMLTAEYSSRLAFTEATDWLVYEGGVWSESAPAAQGIAQELTDRQLAEAGHLLEKARDELMVTGANAVLAAASSKAKALGGFTSPQRAAYRAFEDAKAYEAFVLKRRESRAITSCLREAHPMLLTTPARLDADPYLLNTPGGTWDVRDGTRRDHNPLDLITKQTALDPTDTGAEIWNRALNVFFQSDRELIGYVQRIVGLAAIGTVMVEALVIAYGDGRNGKSTFWNTIARVLGTYAGNMSADVLTIGGNRNVKPELAEAKGKRLIIAAESEEGVRLSTSTVKQLASTDQIYAEKKYKAPFAFTPSHTLILYTNHLPRVGAMDAGIWRRLIVIPFNAVIESSSDVKNYADHLYETAGGAVLAWIMEGSRLIHAEDYQLTPPAQVVAASSAYREENNWFAQFLDARCEVDPSLSERAGDLYQEYRAWAQSTSGWARPMADFNATLEQSGFERRKSKHGMYVYGLALTSEFNS”, the entry is “failed”.
“MTPGSNIPLSAARVTVDVAAPVRLDVSGLLLTADGKVRSDDDFIFYNQPTGQGVTYRSGGGSAPDAIVVDTSAVPPGIEKIVVTASPDAAGQTFQGIEPTATIRNADDNAVLATFTPPQLGTETALVIVEVYLRNGAWKARAVGQGYSNGLAGIATDFGVTVEEPAAPATPPQPQAVTPPPPPAAAPTMPAAPPAPPAAPPAPAPGTGKINLDKGRVSLQKNQTVSLVKGGRPVLSQVKMGLGWEPAYRGKDIDLDASVIAYGPQRNHIDSCYFGKLSIVNGAIKHSGDNLTGEGGGDDEVIVVDLGRLPQEVSGLVFTVNSFSGQKFTEVAKAYCRLIDAASGEELVRFDLTSAEPQTGVMMAKLIRQYSGEWEMTAIGDFVKSRTVRGMVKPAAQAL”: the protein production entry is reported as “failed”.
On to “MTPLHGAATPASASAAGSMKASHEASADPRSRFFDERAATWEQRCYPPEARRRLAALVPRFGVERGDCVLDMGTGTGVLIPYLRDGVGDAGRILSFDVSFEMVRRAGCKERDAKGLCVQATAMRIPARDGVFDRVVCFAAFPHFADKPAAMREMARVVRPGGEVVIAHLLSRAELARHHGGHPAVAEDALPDDATMRGLMHDAGLVEGSITDGPGMYVARARKPRTCRAGEGGVPGTPGTPGGRAGGSAGGEGAESAIAGDAEGNGSGVEAGFEARRVFTALKQNDAMHHSAVYGVLSGLLRAFACDAALPHGAPGQGGALRILDVGCGEAADVVQALEGVTVGAYTGVDTSAPALAEARRHLAALGCPVTLIEGDYRLALNTSQGSVDVLWMGLFLHHLPRALKADFLHTAHGLLAPGGMVLAHDPIMGEDDTRETMLARMEAIGRERWHFLTPEEVGMVHRHWSCHGHQERFSDLCALGEAAGFEVDMVWHDADRTYGLVRFMRRG”, for which the protein production entry is on record as “failed”.
“MTPLMLMVVAGAGIALLLFLVLKYKFQPFVALMLVSIIVALVAGVKPADLVATIEGGMGKTLGHIAIIIALGAMIGRIIELSGGAEALAKTLINRFGNRRTPLALTVAGFMVGIPVFFEVGVIILMPLAYGVARAARKPLLIFALPMCAALLAVHAFLPPHPGAVAAASQLGADLGRVLMLGIPIVAVLCMIGYFVAGRMTRKTYPMTDDIRAEVYGPHVTNEDLEAWARNDYSGAREATETKTLGAEESASSLASKLPPAPAPGFGLIIALILLPIVLILMGTLATTLLPATSTLRAVLTVLGAPLVALLIDTLLCAWLLGSRRGWSRTQVSDVIGSALPGVAMVILIAGAGGVFGKVLVDTGIGAVVSEALRNTGLPVLALGFLLTLLLRAVQGSTTVALVTTAGILSPLIATLDLSANHLALLCLAMGGGGLAMSHINDAGYWMFTKLAGLNVADGLRTWTVLVTLLGTLGFVITLLLWPFV”: the protein production entry is on record as “failed”.
As for “MTPPIINLPQRLGRSRRLAYGAATAGAWMVYFYLWAPLATLIAWFFGLRSAYTELYLQHNALDPFALGSLPVIALMSAITTVGWAEYNRLRFVNADKRRRPRTVAEPDVDQRLGATEQLGTLLRHSRISSVAMDKFARPVAVRVVRHR”, the entry is “failed”.
As for “MTPSRDTKIILEGFCHPALNNPKPISVRFEKSILMVTGVNAGGKTMLLKSILSSAFLARYLIPMPILASKSSIGSFKGIAAVLDDPQSAKNDISTFAGRMLSFERFFKERGFLVGVDEIELGTDSDEAASLFKVILEQLIKRDFKIIITTHHKRLAALMAANEEVELMAALYDEKRQMPTFSFLQGTIGKSYAFETAERYGIPPFVIKEAKEVYGQDKEK”, the entry is “failed”.
Take “MTQAFSRVRFIMTQPSHPGNVGSAARAIKTTGFGELVLVAPRFPDMTAQPEAVTLASGALDVLERAAVHDTLEEALAPVTLAFALTARVRDLGPPPCDIREAAGLARRHLDDTEAGVVAIVLGTERAGLTNAQIELCHRICHIPANPQYSSLNVAQALQLAAWELRYALLAGTGQSLLPASSAQQANPGAAPADGAAVQALLAHWEQALVAVGFLDPAHPKKLMPRMKHLLTRSALSRDEVDMLRGVCTAMIAPNRPK”: the protein production entry is on record as “failed”.
As for “MTQDPIANLKLARKGPIVSIIVYLSLSVAKLLAGYLLNASSLIADGFNNLSDIVGNVALLIGLHLASQPADANHKFGHWKIEDLSSLVTSFIMFLVGFQVLIHTIKSIFSGQQVDIDPLGAIVGIVSAFVMLGVYVFNKRLSKRVKSSALVAASKDNLADAVTSIGTSIAIIAASLHLPVIDHIAAMIITFFILKTAFDIFMESSFSLSDGFDSRHLKKYEKAILEIPKIVAVKSQRARTYGSNVYLDIVLEMNPDLSVYESHSITEKVEQLLSDQFSIYDIDIHVEPAMIPEEEIFDNVAKKLYRYEKLILSKVPDYDHYIAKSFQLIDANGQTVNYEQFLNQEIYYPSNFNHFQIESISQKTMLVTYQLNGNQRTSIWRRHESWSLLFHQITPIAKKQLHHTHYRIVKM”, the entry is “failed”.

These data come from a protein production outcome set (Wang et al. 2014).
